# Measured values as given in US20240287144A1.
# Legend:
# Assay in all cases: cell-based or functional assay
# Design in all cases: unit not given beside the values
# [1] = target: HIV-1 Env of virus 25925-2.22.SG3 (Clade C) (HIV-1 strain 25925-2.22)
# [2] = target: HIV-1 Env of virus HxB2.DG.SG3 (Clade B) (HIV-1 strain HxB2)
# [3] = target: HIV-1 Env of virus CNE58.SG3 (Clade C) (HIV-1 strain CNE58)
# [4] = target: HIV-1 Env of virus DJ263.8.SG3 (Clade AG) (HIV-1 strain DJ263.8)
# [5] = target: HIV-1 Env of virus 242-14.SG3 (Clade AG) (HIV-1 strain 242-14)
# [6] = target: HIV-1 Env of virus 3301.V1.C24.SG3 (Clade AC) (HIV-1 strain 3301.V1.C24)
# [7] = target: HIV-1 Env of virus BG505.W6M.C2.T332N.SG3 (Clade A) (HIV-1 strain BG505)
# [8] = target: HIV-1 Env of virus MW965.26.SG3 (Clade C) (HIV-1 strain MW965.26)
# [9] = target: HIV-1 Env of virus ZM106.9.SG3 (Clade C) (HIV-1 strain ZM106.9)
# [10] = target: HIV-1 Env of virus 001428-2.42.SG3 (Clade C) (HIV-1 strain 001428-2.42)
substance,measurement,setting,value
VRC01 (antibody),"ID50 (virus neutralization, ctrl mAb; run with wk 6 sera)",[1],2.91
same,"ID50 (virus neutralization, ctrl mAb; run with wk 18 sera)",[1],1.07
same,"ID50 (virus neutralization, ctrl mAb; run with wk 6 sera)",[2],0.07
same,"ID50 (virus neutralization, ctrl mAb; run with wk 18 sera)",[2],< 0.05
same,"ID50 (virus neutralization, ctrl mAb; run with wk 6 sera)",[3],0.398
same,"ID50 (virus neutralization, ctrl mAb; run with wk 18 sera)",[3],0.435
same,"ID50 (virus neutralization, ctrl mAb; run with wk 6 sera)",[4],0.095
same,"ID50 (virus neutralization, ctrl mAb; run with wk 18 sera)",[4],0.127
same,"ID50 (virus neutralization, ctrl mAb; run with wk 6 sera)",[5],> 50
same,"ID50 (virus neutralization, ctrl mAb; run with wk 18 sera)",[5],> 50
same,"ID50 (virus neutralization, ctrl mAb; run with wk 6 sera)",[6],0.305
same,"ID50 (virus neutralization, ctrl mAb; run with wk 18 sera)",[6],0.358
same,"ID50 (virus neutralization, ctrl mAb; run with wk 6 sera)",[7],0.097
same,"ID50 (virus neutralization, ctrl mAb; run with wk 18 sera)",[7],0.068
same,"ID50 (virus neutralization, ctrl mAb; run with wk 6 sera)",[8],0.025
same,"ID50 (virus neutralization, ctrl mAb; run with wk 18 sera)",[8],0.041
same,"ID50 (virus neutralization, ctrl mAb; run with wk 6 sera)",[9],0.472
same,"ID50 (virus neutralization, ctrl mAb; run with wk 18 sera)",[9],0.486
same,"ID50 (virus neutralization, ctrl mAb; run with wk 6 sera)",[10],< 0.05
same,"ID50 (virus neutralization, ctrl mAb; run with wk 18 sera)",[10],< 0.05
